± gives the standard deviation of the averaged measurements.
Each sequence was assayed on Saccharomyces cerevisiae (assay: protein stability index of tFT-peptide fusion (C-terminal peptide) (PSI (0-1 scale)); higher = more stable (slower turnover)). Conditions: genetic background: wild type; temperature: 30 C.
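Note: PSI is a weighted mean of sequencing reads over stability bins, variants kept only with over 10 reads, mCherry proximal and sfGFP distal, peptide attached via GGGS linker.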

VCVDLFGLRASA and VCVVALCLPHLP are within error of each other in protein stability index: 0.631 ± 0.044 for the first, 0.583 ± 0.012 for the second.

VDFVGFGGVEGG and VDHWVCWCGGWG are within error of each other in protein stability index: 0.75 ± 0.059 for the first, 0.7734 ± 0.0072 for the second.

Going from VDLGLYGYTDIW to VDLVSRVVFQDR, the protein stability index rises from 0.685 ± 0.035 to 0.7231 ± 0.0015.

VDPAPPRRPPRY and VDSYTGGFDLSW are within error of each other in protein stability index: 0.694 ± 0.097 for the first, 0.681 ± 0.062 for the second.

Going from VECLDTKTTCNI to VEEDPSSQLVIF, the protein stability index falls from 0.73 ± 0.035 to 0.599 ± 0.01.

VEFGIFACFTRP and VERDARGESCSR are within error of each other in protein stability index: 0.6687 ± 0.0019 for the first, 0.747 ± 0.18 for the second.

VFAFLKPTGKLV and VFCGACRLHLCL are within error of each other in protein stability index: 0.597 ± 0.05 for the first, 0.69 ± 0.077 for the second.

VFCGGGRFRCSR and VFDHVGWPFWSY are within error of each other in protein stability index: 0.651 ± 0.023 for the first, 0.714 ± 0.041 for the second.

VFGWAGVGGDCG and VFHCFVSRRRFC are within error of each other in protein stability index: 0.674 ± 0.012 for the first, 0.65 ± 0.022 for the second.

First: VFHSSTRDSFVS
Second: VFIVARGLSLIV
The protein stability index of the first is higher: 0.751 ± 0.066 for the first, 0.536 ± 0.014 for the second.

Going from VFLRGGVLPLRR to VFLRVLLECLDF, the protein stability index falls from 0.691 ± 0.012 to 0.5666 ± 0.0036.

VFNLSIPLPSFP and VFPARTALFFPQ are within error of each other in protein stability index: 0.707 ± 0.046 for the first, 0.726 ± 0.05 for the second.

Compared with VFQFVLGVILGW, VFSASCYSNSAR is higher in protein stability index: 0.5289 ± 0.0035 for the first, 0.739 ± 0.032 for the second.

VFWGGGAVGSVR and VGAAGGVGGSGG are within error of each other in protein stability index: 0.69 ± 0.071 for the first, 0.629 ± 0.048 for the second.

VGACGWRGWCVV and VGAFEGDWGVRH are within error of each other in protein stability index: 0.664 ± 0.011 for the first, 0.671 ± 0.099 for the second.

VGAGLRMRVGEA and VGCRVVPGAGEV are within error of each other in protein stability index: 0.669 ± 0.035 for the first, 0.666 ± 0.016 for the second.

Going from VGEGSGEWKFLD to VGELGVFAPGGK, the protein stability index falls from 0.809 ± 0.06 to 0.5 ± 0.1.

Going from VGFGFVRSLLVG to VGGGGAELCVVE, the protein stability index rises from 0.6151 ± 0.005 to 0.667 ± 0.022.

First: VGGGGECCFLEG
Second: VGGGGRSTGVGK
The protein stability index of the first is higher: 0.826 ± 0.1 for the first, 0.65 ± 0.044 for the second.

VGGGKRILVPRS and VGGGLSLGGVWW are the same in protein stability index: 0.691 ± 0.12 for the first, 0.691 ± 0.038 for the second.

VGGGRDLFFFKF and VGGHGGVGGGMG are within error of each other in protein stability index: 0.602 ± 0.044 for the first, 0.651 ± 0.026 for the second.

VGGIVGWFCRGR and VGGLGGVGGGMG are within error of each other in protein stability index: 0.698 ± 0.081 for the first, 0.654 ± 0.03 for the second.

VGGRAAIVRGGW and VGGVAGSFIFSC are within error of each other in protein stability index: 0.6853 ± 0.0026 for the first, 0.759 ± 0.15 for the second.

VGGVGGGRAWWR and VGKGALHCLPDL are within error of each other in protein stability index: 0.685 ± 0.055 for the first, 0.713 ± 0.0015 for the second.

VGKYVVTKNGGC and VGPLIGQVGIDT are within error of each other in protein stability index: 0.694 ± 0.043 for the first, 0.748 ± 0.014 for the second.

VGPLYFPWSLNF and VGPVDPGDSDGL are within error of each other in protein stability index: 0.692 ± 0.053 for the first, 0.699 ± 0.0065 for the second.

VGQPWRLHFILR and VGQVGAGAVPVG are within error of each other in protein stability index: 0.648 ± 0.0062 for the first, 0.677 ± 0.037 for the second.

VGRESVVGEQFV and VGRVGVRDGVVG are within error of each other in protein stability index: 0.625 ± 0.025 for the first, 0.613 ± 0.032 for the second.

VGRVGVREGVVG and VGSGGGAPRVGR are within error of each other in protein stability index: 0.638 ± 0.067 for the first, 0.647 ± 0.072 for the second.

VGSGGGKGLCRQ and VGSRGWGRWGVA are within error of each other in protein stability index: 0.674 ± 0.048 for the first, 0.693 ± 0.047 for the second.

VGSWVEVWGVIG and VGTFGAGGYAPD are within error of each other in protein stability index: 0.687 ± 0.041 for the first, 0.646 ± 0.078 for the second.

Compared with VGTQIGLWVAQV, VGTRGARREVQT is higher in protein stability index: 0.591 ± 0.041 for the first, 0.734 ± 0.07 for the second.

VGVGGRRYNVRG and VGVGGVGRRAKI are within error of each other in protein stability index: 0.66 ± 0.013 for the first, 0.687 ± 0.075 for the second.

VGVGNRRWGGGV and VGVGRRGGVGEG are within error of each other in protein stability index: 0.679 ± 0.014 for the first, 0.654 ± 0.029 for the second.

VGVRCVGVLFGV and VGVRRAGGARGW are within error of each other in protein stability index: 0.637 ± 0.0072 for the first, 0.634 ± 0.088 for the second.

VGVSGEGFSWGG and VGVSGEGFSWVG are within error of each other in protein stability index: 0.674 ± 0.019 for the first, 0.675 ± 0.021 for the second.

First: VGVWRGWDVDCH
Second: VGWCTGWFVGLV
The protein stability index of the first is higher: 0.776 ± 0.061 for the first, 0.6652 ± 0.0063 for the second.

Going from VGWGGGVEEVKG to VHFECFLVPFLL, the protein stability index falls from 0.712 ± 0.017 to 0.525 ± 0.028.

VHGRAPTSRSGT and VHRRRVSVGGGG are within error of each other in protein stability index: 0.72 ± 0.043 for the first, 0.69 ± 0.0092 for the second.

VHWRDARFLRGM and VHWVVFSVPRQA are within error of each other in protein stability index: 0.658 ± 0.045 for the first, 0.73 ± 0.033 for the second.

VIGRRRLQDWII and VIRGVVPVVRSV are within error of each other in protein stability index: 0.736 ± 0.081 for the first, 0.668 ± 0.037 for the second.

VIRRLSNPCILR and VITGGFVVGCCG are within error of each other in protein stability index: 0.663 ± 0.067 for the first, 0.623 ± 0.018 for the second.

First: VIYIEYIGRNFI
Second: VKEHRPQRNPSH
The protein stability index of the first is lower: 0.631 ± 0.027 for the first, 0.675 ± 0.016 for the second.

Going from VKEKKKDEKRKR to VKENLCLLWVYR, the protein stability index falls from 0.747 ± 0.072 to 0.562 ± 0.013.

First: VKEVSVIKNHQG
Second: VKTIRVTKSVGD
The protein stability index of the first is lower: 0.454 ± 0.11 for the first, 0.6941 ± 0.0057 for the second.

VKYPALMITGFW and VLALPSSPLLPS are within error of each other in protein stability index: 0.669 ± 0.015 for the first, 0.643 ± 0.1 for the second.

VLARPQAKAPLG and VLGGSMWLDLVC are within error of each other in protein stability index: 0.571 for the first, 0.781 ± 0.23 for the second.

Compared with VLGPFKKSIQVL, VLGRLRVGRDRV is higher in protein stability index: 0.522 ± 0.02 for the first, 0.7521 ± 0.0019 for the second.

VLGSSSKLGSLS and VLGVVGNYFESA are within error of each other in protein stability index: 0.647 ± 0.025 for the first, 0.668 ± 0.078 for the second.

VLGWCLCGRTCG and VLHGGKLFGFVR are within error of each other in protein stability index: 0.6579 ± 0.0013 for the first, 0.676 ± 0.017 for the second.

Compared with VLIFSSFRSLVF, VLLAGPIPSALP is higher in protein stability index: 0.562 ± 0.081 for the first, 0.662 ± 0.0079 for the second.

Compared with VLLGCRRAWVGF, VLLHFRSFAPPV is lower in protein stability index: 0.669 ± 0.018 for the first, 0.613 ± 0.008 for the second.

First: VLLYAPLLPPLA
Second: VLPRPLPALPPL
The protein stability index of the first is lower: 0.622 ± 0.018 for the first, 0.683 ± 0.028 for the second.

Going from VLRDLGVSLSRA to VLRHRGEGGPGA, the protein stability index falls from 0.785 ± 0.025 to 0.67 ± 0.035.

VLSAPPGLLSYT and VLSGLPPGFTLV are within error of each other in protein stability index: 0.623 ± 0.053 for the first, 0.644 ± 0.012 for the second.

VLSSASRGSRCL and VLSSSTLFFLVF are within error of each other in protein stability index: 0.707 ± 0.17 for the first, 0.584 ± 0.024 for the second.

VLTFVWLVGQGF and VLVFPVVYWILR are within error of each other in protein stability index: 0.581 ± 0.048 for the first, 0.543 ± 0.038 for the second.

VNLSNLRPCPTR and VPASVRRSAPVP are within error of each other in protein stability index: 0.707 ± 0.065 for the first, 0.664 ± 0.044 for the second.

VPAVGGFLMFIG and VPCSIQWNLDEL are within error of each other in protein stability index: 0.638 ± 0.0094 for the first, 0.673 ± 0.055 for the second.

VPDDGVLLSVLE and VPFFLSNSSHIK are within error of each other in protein stability index: 0.7182 ± 0.0017 for the first, 0.679 ± 0.051 for the second.

VPFQEGHVKRFL and VPGRSPTKSTVS are within error of each other in protein stability index: 0.665 ± 0.019 for the first, 0.66808 ± 0.00013 for the second.

Going from VPGWRVGGARSV to VPLFLVPGLSAV, the protein stability index falls from 0.746 ± 0.048 to 0.602 ± 0.0083.

VPLGFPPPPLDP and VPLRGPAPPRPR are within error of each other in protein stability index: 0.727 ± 0.038 for the first, 0.739 ± 0.035 for the second.

VPLRPFFPTLFP and VPLSPVSSGAPD are within error of each other in protein stability index: 0.712 ± 0.063 for the first, 0.66 ± 0.04 for the second.

Going from VPPHLLAPDPRL to VPPLRPVAPCRG, the protein stability index falls from 0.7158 ± 0.0066 to 0.533 ± 0.014.

VPPLVSSSSLLL and VPPPLRLWPLPV are within error of each other in protein stability index: 0.636 ± 0.082 for the first, 0.618 ± 0.076 for the second.

VPPPPPRLKRFA and VPPPRLPQPLFP are within error of each other in protein stability index: 0.639 ± 0.035 for the first, 0.717 ± 0.052 for the second.

VPRCLPVGLLFF and VPRPFILTATSE are within error of each other in protein stability index: 0.71 ± 0.19 for the first, 0.675 ± 0.084 for the second.

VPRRSLLSPPPP and VQGSRKGSRERW are within error of each other in protein stability index: 0.668 ± 0.023 for the first, 0.683 ± 0.065 for the second.

VQLHIDVRSFLF and VQTIKPVPSGLR are within error of each other in protein stability index: 0.67 ± 0.014 for the first, 0.622 ± 0.078 for the second.

Going from VQVRPVVTVPSK to VQWTEFYWVRKG, the protein stability index falls from 0.7 ± 0.068 to 0.575 ± 0.037.

Compared with VRALGRDGIRQC, VRCCFGGRGGIA is higher in protein stability index: 0.602 ± 0.015 for the first, 0.653 ± 0.0079 for the second.

Compared with VRCGGPGRAGKG, VRDRVLFVARGG is higher in protein stability index: 0.63 ± 0.052 for the first, 0.6996 ± 0.00075 for the second.

Compared with VRFVVRSVSSFV, VRFVVRVFQCSF is lower in protein stability index: 0.5973 ± 0.0014 for the first, 0.466 ± 0.052 for the second.

VRGFFTLSGNLI and VRGKGWRGGWWG are within error of each other in protein stability index: 0.716 ± 0.072 for the first, 0.682 ± 0.031 for the second.

VRGLGRLSRAEV and VRGRGRQDVDGG are within error of each other in protein stability index: 0.77 ± 0.014 for the first, 0.699 ± 0.11 for the second.

Going from VRGRGVYRIDKV to VRLIGVSVGALE, the protein stability index falls from 0.716 ± 0.018 to 0.579 ± 0.068.

VRLLAESWEGGR and VRPEPSTGARGA are within error of each other in protein stability index: 0.702 ± 0.017 for the first, 0.669 ± 0.049 for the second.

Compared with VRPFTLLSSYSV, VRPREWMIPFEC is higher in protein stability index: 0.644 ± 0.028 for the first, 0.709 ± 0.012 for the second.

VRRRRVPSEATR and VRSDHSGLEILG are within error of each other in protein stability index: 0.667 ± 0.044 for the first, 0.782 ± 0.11 for the second.
